# Assay results as given in article PMC10992996.
# Biological target: Human canonical CRB1 (Crumbs homolog 1) (UniProt P82279)
# Assay: co-IP (FLAG-IP) and Western blot quantification
# Conditions: co-transfected in HEK293T cells; three biological replicates; parent: est. 1.0; read off a plot
# Chain of Human canonical CRB1 (Crumbs homolog 1) (P82279 26-1406): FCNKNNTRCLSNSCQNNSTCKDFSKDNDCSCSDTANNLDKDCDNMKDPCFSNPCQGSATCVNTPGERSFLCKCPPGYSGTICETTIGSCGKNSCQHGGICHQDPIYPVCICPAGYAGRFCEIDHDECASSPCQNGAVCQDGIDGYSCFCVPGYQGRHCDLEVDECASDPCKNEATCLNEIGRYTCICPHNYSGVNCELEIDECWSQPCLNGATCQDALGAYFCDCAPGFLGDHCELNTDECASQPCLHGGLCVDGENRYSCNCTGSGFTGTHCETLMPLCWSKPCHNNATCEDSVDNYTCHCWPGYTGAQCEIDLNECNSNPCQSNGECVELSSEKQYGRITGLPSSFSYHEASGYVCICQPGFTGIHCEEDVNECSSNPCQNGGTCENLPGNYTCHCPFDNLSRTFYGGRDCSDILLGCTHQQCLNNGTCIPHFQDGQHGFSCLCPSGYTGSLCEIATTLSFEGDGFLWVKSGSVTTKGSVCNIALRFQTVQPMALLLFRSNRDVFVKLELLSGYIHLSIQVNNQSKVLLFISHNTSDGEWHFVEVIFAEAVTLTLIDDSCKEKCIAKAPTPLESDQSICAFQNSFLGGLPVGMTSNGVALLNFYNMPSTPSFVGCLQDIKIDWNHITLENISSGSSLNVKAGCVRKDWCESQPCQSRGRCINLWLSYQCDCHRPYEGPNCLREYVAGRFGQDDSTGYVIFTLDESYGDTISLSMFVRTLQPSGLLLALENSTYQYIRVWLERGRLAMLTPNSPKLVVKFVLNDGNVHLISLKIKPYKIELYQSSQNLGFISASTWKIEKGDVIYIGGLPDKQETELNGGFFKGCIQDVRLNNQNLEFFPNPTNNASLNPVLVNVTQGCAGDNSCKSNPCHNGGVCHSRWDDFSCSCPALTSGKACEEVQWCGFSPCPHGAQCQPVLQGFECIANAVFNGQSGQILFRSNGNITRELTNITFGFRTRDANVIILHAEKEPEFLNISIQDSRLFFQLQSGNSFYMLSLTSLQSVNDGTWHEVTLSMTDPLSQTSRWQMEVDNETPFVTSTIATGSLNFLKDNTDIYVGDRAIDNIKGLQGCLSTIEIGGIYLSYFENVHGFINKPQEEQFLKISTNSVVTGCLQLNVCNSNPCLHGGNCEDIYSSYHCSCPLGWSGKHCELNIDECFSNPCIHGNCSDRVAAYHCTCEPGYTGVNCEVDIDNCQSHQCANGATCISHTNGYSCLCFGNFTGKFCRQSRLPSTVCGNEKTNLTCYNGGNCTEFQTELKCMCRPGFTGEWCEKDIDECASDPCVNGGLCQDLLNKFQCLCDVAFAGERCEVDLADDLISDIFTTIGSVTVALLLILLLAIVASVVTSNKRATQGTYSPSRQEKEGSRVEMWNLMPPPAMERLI
row,ratio to parent,Substance
1,0.9,Human canonical CRB2 (Crumbs homolog 2) (from UniProt Q5IJ48-1) p.R633W
2,1.1,Human canonical CRB2 (Crumbs homolog 2) (from UniProt Q5IJ48-1) p.N800K
3,1,Human canonical CRB2 (Crumbs homolog 2) (from UniProt Q5IJ48-1) p.R1115C
4,1.1,Human canonical CRB2 (Crumbs homolog 2) (from UniProt Q5IJ48-1) p.L777H
5,0.94,Human canonical CRB2 (Crumbs homolog 2) (from UniProt Q5IJ48-1) p.G839W
6,0.97,Human canonical CRB2 (Crumbs homolog 2) (from UniProt Q5IJ48-1) p.R628C

# Further lines, the substance ahead of its results:
row,Substance,ratio to parent
1,Human canonical CRB2 (Crumbs homolog 2) (from UniProt Q5IJ48-1) p.W498C,1.1
2,Human canonical CRB2 (Crumbs homolog 2) (from UniProt Q5IJ48-1) p.C629S,1.1
3,Human canonical CRB2 (Crumbs homolog 2) (from UniProt Q5IJ48-1) p.C1129S,1.2
4,Human canonical CRB2 (Crumbs homolog 2) (from UniProt Q5IJ48-1) p.C620S,1.1
